Assay results reported in patent US20170260257A1.
Where “and” joins values, the source holds several entries; their conditions need not be identical. Equal entries are not always repeated.

Target: BSA (UniProt P02769)
Test: sandwich ELISA: plate coated with the antibody, BSA as negative sample, detection with sheep anti-HBsAg/peroxidase

Sequence of BSA (P02769 25-607 limits assumed): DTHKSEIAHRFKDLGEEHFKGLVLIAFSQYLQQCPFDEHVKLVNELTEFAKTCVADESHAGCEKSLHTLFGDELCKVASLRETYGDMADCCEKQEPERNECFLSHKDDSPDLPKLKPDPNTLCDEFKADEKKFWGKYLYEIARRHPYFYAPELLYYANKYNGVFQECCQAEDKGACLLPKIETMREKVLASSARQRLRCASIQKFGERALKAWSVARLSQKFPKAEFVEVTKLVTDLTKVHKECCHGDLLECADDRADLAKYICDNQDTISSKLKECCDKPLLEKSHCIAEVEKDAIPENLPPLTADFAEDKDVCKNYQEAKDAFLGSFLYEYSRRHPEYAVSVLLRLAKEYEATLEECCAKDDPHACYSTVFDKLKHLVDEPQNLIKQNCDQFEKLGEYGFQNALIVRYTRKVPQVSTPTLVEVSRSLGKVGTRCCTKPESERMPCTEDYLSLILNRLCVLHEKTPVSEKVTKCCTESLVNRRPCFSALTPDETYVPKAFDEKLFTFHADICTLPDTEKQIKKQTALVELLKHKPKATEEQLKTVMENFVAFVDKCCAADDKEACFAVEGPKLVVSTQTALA

B1: the antibody of the present invention comprising a heavy-chain variable region having amino acid sequence of SEQ ID NO: 2 and a light-chain variable region … (antibody, V domains shown)
VH: EVQLVESGGGLVKPGGSLRLSCSASGFSLTKYKMTWVRQAPGKGLEWVSSISSTSRDIDYADSVKGRFTISRDNAKNSLFLQMSSLRVDDTAVYYCTRDGWLWGWDVRSNYYYNALDVWGQGTTVTVSS
VL: DIVVTQSPSSLSASVGDRVTITCRASQGIYNSIAWYQQKPGKAPKLLLYSTSTLLSGVPSRFSGSGSGTDYTLTITNLQPEDFATYYCQQYFVTPETFGQGTKLEIKR
In the case of B1, the A450 is reported as 0.251 A450 and 0.263 A450.
